# Results: patent US20160279215A1, “NOVEL PEPTIDES AND COMBINATION OF PEPTIDES FOR USE IN IMMUNOTHERAPY AGAINST VARIOUS TUMORS” (immatics biotechnologies GmbH, priority 2015, published 2016)
# Target: T1, HLA-A*02:01 (Homo sapiens, UniProt P04439, D140Y/D185E/D98H/E176V/E277Q/G131W/G231S/I119V/I121R/I166T/I218V/L300P/L318F/N151K/N90K/P208A/P217A/Q86G/Q94H/R138H/R169H/T345S)
# T1 construct: made in house
# Assay: MHC binding assay: UV-ligand exchange with β2m ELISA (peptide exchange yield)
# Conditions: binding to HLA-A*02:01 evaluated by peptide exchange yield (UV-ligand exchange, β2m ELISA)
# Description: Candidate peptides for T cell based therapies according to the present invention were further tested for their MHC binding capacity (affinity). The individual peptide-MHC complexes were produced by UV-ligand exchange, where a UV-sensitive peptide is cleaved upon UV-irradiation, and exchanged with the peptide of interest as analyzed. Only peptide candidates that can effectively bind and stabilize the peptide-receptive MHC molecules prevent dissociation of the MHC complexes. To determine the yield of the exchange reaction, an ELISA was performed based on the detection of the light chain (β2m) of stabilized MHC complexes. The assay was performed as generally described in Rodenko et al. (Rodenko et al., 2006).
# 96 well MAXISorp plates (NUNC) were coated over night with 2 ug/ml streptavidin in PBS at room temperature, washed 4× and blocked for 1 h at 37° C. in 2% BSA containing blocking buffer. Refolded HLA-A*02:01/MLA-001 monomers served as standards, covering the range of 15-500 ng/ml. Peptide-MHC monomers of the UV-exchange reaction were diluted 100 fold in blocking buffer. Samples were incubated for 1 h at 37° C., washed four times, incubated with 2 ug/ml HRP conjugated anti-β2m for 1 h at 37° C., washed again and detected with TMB solution that is stopped with […]. Absorption was measured at 450 nm. Candidate peptides that show a high exchange yield (preferably higher than 50%, most preferred higher than 75%) are generally preferred for a generation and production of antibodies or fragments thereof, and/or T cell receptors or fragments thereof, as they show sufficient avidity to the MHC molecules and prevent dissociation of the MHC complexes.
row,Peptide exchange,Substance
1,+++ (≧50 = +++),223 (ALHPVQFYL; listed as Homo sapiens) [compound 223]
2,+++ (≧50 = +++),224 (LLFDWSGTGRADA; listed as Homo sapiens) [compound 224]
3,+++ (≧50 = +++),225 (FLPQPVPLSV; listed as Homo sapiens) [compound 225]
4,+++ (≧50 = +++),226 (SLAGNLQEL; listed as Homo sapiens) [compound 226]
5,+ (≧10% = +),227 (SEMEELPSV; listed as Homo sapiens) [compound 227]
6,+++ (≧50 = +++),228 (SLLELDGINLRL; listed as Homo sapiens) [compound 228]
7,++ (≧20% = ++),229 (YLYELEHAL; listed as Homo sapiens) [compound 229]
8,+++ (≧50 = +++),230 (KLLNMIFSI; listed as Homo sapiens) [compound 230]
9,+++ (≧50 = +++),231 (LLDDIFIRL; listed as Homo sapiens) [compound 231]
10,++ (≧20% = ++),235 (SLLNQPKAV; listed as Homo sapiens) [compound 235]
11,+++ (≧50 = +++),237 (ALLEQTGDMSL; listed as Homo sapiens) [compound 237]
12,++ (≧20% = ++),238 (HLQEKLQSL; listed as Homo sapiens) [compound 238]
13,+++ (≧50 = +++),239 (VIIKGLEEITV; listed as Homo sapiens) [compound 239]
14,+++ (≧50 = +++),241 (KQFEGTVEI; listed as Homo sapiens) [compound 241]
15,++ (≧20% = ++),243 (GLAEFQENV; listed as Homo sapiens) [compound 243]
16,+++ (≧50 = +++),244 (NVAEIVIHI; listed as Homo sapiens) [compound 244]

row,Peptide exchange,Substance
1,++ (≧20% = ++),245 (ALLEEEEGV; listed as Homo sapiens) [compound 245]
2,++ (≧20% = ++),247 (NLLIDDKGTIKL; listed as Homo sapiens) [compound 247]
3,+++ (≧50 = +++),249 (YLYQILQGI; listed as Homo sapiens) [compound 249]
4,+++ (≧50 = +++),250 (LMQDSRLYL; listed as Homo sapiens) [compound 250]
5,++ (≧20% = ++),252 (SLMEKNQSL; listed as Homo sapiens) [compound 252]
6,+++ (≧50 = +++),256 (FLNDIFERI; listed as Homo sapiens) [compound 256]
7,++ (≧20% = ++),258 (QLVQRVASV; listed as Homo sapiens) [compound 258]
8,+ (≧10% = +),259 (GPGIFPPPPPQP; listed as Homo sapiens) [compound 259]
9,+++ (≧50 = +++),262 (LLLEAVWHL; listed as Homo sapiens) [compound 262]
10,+++ (≧50 = +++),265 (FLLDKPQDLSI; listed as Homo sapiens) [compound 265]
11,++ (≧20% = ++),266 (FLLDKPQDL; listed as Homo sapiens) [compound 266]
12,++ (≧20% = ++),268 (SLDKDIVAL; listed as Homo sapiens) [compound 268]
13,++++ (≧75% = ++++),269 (GLLDCPIFL; listed as Homo sapiens) [compound 269]
14,+++ (≧50 = +++),270 (TLLTFFHEL; listed as Homo sapiens) [compound 270]
15,+++ (≧50 = +++),271 (VLIEYNFSI; listed as Homo sapiens) [compound 271]

# Further lines, the substance ahead of its results:
row,Substance,Peptide exchange
1,174 (ALYSGDLHAA; listed as Homo sapiens) [compound 174],++ (≧20% = ++)
2,175 (SLLDLVQSL; listed as Homo sapiens) [compound 175],+++ (≧50 = +++)
3,176 (VQSGLRILL; listed as Homo sapiens) [compound 176],++ (≧20% = ++)
4,177 (ALINVLNAL; listed as Homo sapiens) [compound 177],+++ (≧50 = +++)
5,178 (SLVSWQLLL; listed as Homo sapiens) [compound 178],++++ (≧75% = ++++)
6,179 (TLGEIIKGV; listed as Homo sapiens) [compound 179],+++ (≧50 = +++)
7,180 (RLYEEEIRI; listed as Homo sapiens) [compound 180],+++ (≧50 = +++)
8,181 (LLWAPTAQA; listed as Homo sapiens) [compound 181],+++ (≧50 = +++)
9,182 (GLQDGFQITV; listed as Homo sapiens) [compound 182],+++ (≧50 = +++)
10,183 (ALSYILPYL; listed as Homo sapiens) [compound 183],+++ (≧50 = +++)
11,184 (ALDSTIAHL; listed as Homo sapiens) [compound 184],++ (≧20% = ++)
12,185 (TLYQGLPAEV; listed as Homo sapiens) [compound 185],++ (≧20% = ++)
13,187 (SILKEDPFL; listed as Homo sapiens) [compound 187],++ (≧20% = ++)
14,188 (VLGEEQEGV; listed as Homo sapiens) [compound 188],++ (≧20% = ++)
15,190 (SLSTELFKV; listed as Homo sapiens) [compound 190],+++ (≧50 = +++)
16,191 (AAIEIFEKV; listed as Homo sapiens) [compound 191],+++ (≧50 = +++)
17,192 (TLLPSSGLVTL; listed as Homo sapiens) [compound 192],++ (≧20% = ++)
18,193 (ALFHMNILL; listed as Homo sapiens) [compound 193],+++ (≧50 = +++)
19,194 (KLLEEVQLL; listed as Homo sapiens) [compound 194],++ (≧20% = ++)
20,195 (VIIQNLPAL; listed as Homo sapiens) [compound 195],+++ (≧50 = +++)
21,198 (ILTNKVVSV; listed as Homo sapiens) [compound 198],++ (≧20% = ++)

row,Substance,Peptide exchange
1,199 (SVADLAHVL; listed as Homo sapiens) [compound 199],++ (≧20% = ++)
2,200 (IMPTFDLTKV; listed as Homo sapiens) [compound 200],+++ (≧50 = +++)
3,203 (FLFVDPELV; listed as Homo sapiens) [compound 203],++ (≧20% = ++)
4,204 (SEWGSPHAAVP; listed as Homo sapiens) [compound 204],+++ (≧50 = +++)
5,206 (GLDAFRIFL; listed as Homo sapiens) [compound 206],++++ (≧75% = ++++)
6,207 (KLFETVEEL; listed as Homo sapiens) [compound 207],+++ (≧50 = +++)
7,208 (HLNNDRNPL; listed as Homo sapiens) [compound 208],++ (≧20% = ++)
8,210 (GLAGDNIYL; listed as Homo sapiens) [compound 210],+++ (≧50 = +++)
9,211 (LLTTVLINA; listed as Homo sapiens) [compound 211],+++ (≧50 = +++)
10,212 (MTLSEIHAV; listed as Homo sapiens) [compound 212],++ (≧20% = ++)
11,213 (ILAVDGVLSV; listed as Homo sapiens) [compound 213],+++ (≧50 = +++)
12,214 (ALFETLIQL; listed as Homo sapiens) [compound 214],+++ (≧50 = +++)
13,215 (QIADIVTSV; listed as Homo sapiens) [compound 215],++ (≧20% = ++)
14,216 (ALSTVTPRI; listed as Homo sapiens) [compound 216],++ (≧20% = ++)
15,217 (LLWPSSVPA; listed as Homo sapiens) [compound 217],+++ (≧50 = +++)
16,218 (SLTGANITV; listed as Homo sapiens) [compound 218],+++ (≧50 = +++)
17,219 (GVVPTIQKV; listed as Homo sapiens) [compound 219],++ (≧20% = ++)
18,220 (ALSELERVL; listed as Homo sapiens) [compound 220],+++ (≧50 = +++)
19,221 (IMLNSVEEI; listed as Homo sapiens) [compound 221],++ (≧20% = ++)
20,222 (LLTGVFAQL; listed as Homo sapiens) [compound 222],++ (≧20% = ++)
